Data taken from article PMC4552884.

Biological target: PfHsp90 (Plasmodium falciparum (endogenous in strain 3D7)) (UniProt Q8IC05)

decrease in signal of the precursor PfHsp60 spot in the PfHsp60 immunoprecipitate of 35S-labelled parasites treated with 5 uM Geldanamycin against DMSO (2DGE, phosphorimaging): 80%
Substance: precursor PfHsp60 (natural protein)
